The target in series [1] is T1, LARP4A NTD (Homo sapiens, UniProt Q71RC2 1-287). Kind of series: EMSA; with competitor tRNA; low micromolar Kd, >100-fold tighter than La module; value only in figure; EMSA: 20 mM Tris pH 7.25, 200 mM KCl, 5% glycerol, 1 mM DTT, 0.1 mg/ml BSA, 0.01 mg/ml E. coli tRNA, on ice, gel at 4 C; MST: 20 mM Tris pH 7.25, 100 mM KCl, 0.2 mM EDTA, 1 mM DTT, 0.05% Tween-20, 25 C. Particulars: protein: recombinant; tags: His tag (TEV) or His-SUMO, cleaved; label: 5' 32P (EMSA); unlabelled (NMR, native MS); single strand.

Another series has as its target T2, LARP4A 1-50 (Homo sapiens, UniProt Q71RC2 1-50).
T2 chain: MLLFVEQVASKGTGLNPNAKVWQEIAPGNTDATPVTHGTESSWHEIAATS
Kind of series: EMSA; up to 200 uM protein; EMSA: 20 mM Tris pH 7.25, 200 mM KCl, 5% glycerol, 1 mM DTT, 0.1 mg/ml BSA, 0.01 mg/ml E. coli tRNA, on ice, gel at 4 C; MST: 20 mM Tris pH 7.25, 100 mM KCl, 0.2 mM EDTA, 1 mM DTT, 0.05% Tween-20, 25 C. As to conditions: protein: recombinant; tags: His-SUMO, cleaved; label: 5' 32P (EMSA); unlabelled (NMR, native MS); single strand. (In general: Mobility shift assays separate free from complexed probe on a gel.)

Another series has as its target LARP4A 1-79 (Homo sapiens, UniProt Q71RC2 1-79). The series is described as above. As to conditions: protein: recombinant; tags: His-SUMO, cleaved; label: 5' 32P (EMSA); unlabelled (NMR, native MS); single strand.
Another series concerns the target LARP4A La module (Homo sapiens, UniProt Q71RC2 111-287). Kind of series: NMR; small shifts, almost exclusively RRM1; 100 mM KCl; EMSA: 20 mM Tris pH 7.25, 200 mM KCl, 5% glycerol, 1 mM DTT, 0.1 mg/ml BSA, 0.01 mg/ml E. coli tRNA, on ice, gel at 4 C; MST: 20 mM Tris pH 7.25, 100 mM KCl, 0.2 mM EDTA, 1 mM DTT, 0.05% Tween-20, 25 C. As to conditions: protein: recombinant; tags: His tag, TEV-cleaved; label: 5' 32P (EMSA); unlabelled (NMR, native MS); single strand.

For series [2], the target named is T3, LARP4A NTR (Homo sapiens, UniProt Q71RC2 1-111). Kind of series: EMSA; with competitor tRNA; retains majority of affinity; Kd only in figure; EMSA: 20 mM Tris pH 7.25, 200 mM KCl, 5% glycerol, 1 mM DTT, 0.1 mg/ml BSA, 0.01 mg/ml E. coli tRNA, on ice, gel at 4 C; MST: 20 mM Tris pH 7.25, 100 mM KCl, 0.2 mM EDTA, 1 mM DTT, 0.05% Tween-20, 25 C. As to conditions: protein: recombinant; tags: His (TEV) or His-SUMO, cleaved; label: 5' 32P (EMSA); unlabelled (NMR, native MS); single strand.

The target of series [3] is T1, LARP4A NTD. Kind of series: MST; 25 C; agrees with EMSA; Kd only in figure; EMSA: 20 mM Tris pH 7.25, 200 mM KCl, 5% glycerol, 1 mM DTT, 0.1 mg/ml BSA, 0.01 mg/ml E. coli tRNA, on ice, gel at 4 C; MST: 20 mM Tris pH 7.25, 100 mM KCl, 0.2 mM EDTA, 1 mM DTT, 0.05% Tween-20, 25 C. As to conditions: protein: recombinant; tags: His tag (TEV) or His-SUMO, cleaved; label: 5' fluorescein (FAM); single strand.

The target of series [4] is T3, LARP4A NTR. The description is as above. Particulars: protein: recombinant; tags: His (TEV) or His-SUMO, cleaved; label: 5' fluorescein (FAM); single strand.

LARP4A La module, sequence (Q71RC2 111-287): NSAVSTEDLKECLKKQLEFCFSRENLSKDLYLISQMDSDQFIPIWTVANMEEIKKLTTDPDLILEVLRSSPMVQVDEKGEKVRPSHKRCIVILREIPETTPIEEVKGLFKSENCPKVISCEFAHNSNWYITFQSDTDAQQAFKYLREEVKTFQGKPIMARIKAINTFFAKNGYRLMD

Regarding AAAAAAAAAAAAAAA (ssRNA) [oligoA15], the binding result with LARP4A NTD [1] is listed as “binds”; in the series with LARP4A 1-50, “no binding”; in the series with LARP4A 1-79, “no binding”; in the series with LARP4A La module it was “binds”; with LARP4A NTR [2] it was “binds”.
For AAAAAAAAAAAAAAAAAAAA (ssRNA) [5'FAM-oligoA20], the binding result in the series with LARP4A NTD [3] and with LARP4A NTR [4] was “binds” in each case.

Values taken from article PMC6486636, “LARP4A recognizes polyA RNA via a novel binding mechanism mediated by disordered regions and involving the PAM2w motif, revealing interplay between PABP, LARP4A and mRNA”.
